Our source for the Km and kcat values is article PMC5441850, “Waxy and non-waxy barley cultivars exhibit differences in the targeting and catalytic activity of GBSS1a” (Journal of Experimental Botany, 2017).

The chains are these.
B1: HvGBSSIa (Hordeum vulgare; D287V/I559V/M558V) (protein)
chain: SATGSGMNLVFVGAEMAPWSKTGGLGDVLGGLPPAMAANGHRVMVVSPRYDQYKDAWDTSVISEIKVADEYERVRFFHCYKRGVDRVFIDHPWFLEKVRGKTKEKIYGPDAGTDYEDNQQRFSLLCQAALEAPRILNLNNNPYFSGPYGEDVVFVCNDWHTGLLACYLKSNYQSNGIYRTAKVAFCIHNISYQGRFSFDDFAQLNLPDRFKSSFDFIVGYDKPVEGRKINWMKAGILQADKVLTVSPYYAEELISGEARGCELDNIMRLTGITGIVNGMDVSEWDPTKDKFLAVNYDITTALEAKALNKEALQAEVGLPVDRKVPLVAFIGRLEEQKGPDVMIAAIPEILKEEDVQIILLGTGKKKFEKLLKSMEEKFPGKVRAVVRFNAPLAHQMMAGADLLAVTSRFEPCGLIQLQGMRYGTPCVCASTGGLVDTIVEGKTGFHMGRLSVDCNVVEPADVKKVATTLKRAVKVVGTPAYQEMVKNCVVQDLSWKGPAKNWEDVLLELGVEGSEPGIVGEEIAPLAMENVAAP
notes: initial 69 residues (plastid transit peptide) removed; codon-optimized, pET28a 6xHis tag; E. coli Tuner(DE3); HisTrap and Superdex75; mature size 59 kDa; CDC Alamo allele entry AF486519
B2: HvGBSSIa (Hordeum vulgare; I559V/M558V) (protein)
chain: SATGSGMNLVFVGAEMAPWSKTGGLGDVLGGLPPAMAANGHRVMVVSPRYDQYKDAWDTSVISEIKVADEYERVRFFHCYKRGVDRVFIDHPWFLEKVRGKTKEKIYGPDAGTDYEDNQQRFSLLCQAALEAPRILNLNNNPYFSGPYGEDVVFVCNDWHTGLLACYLKSNYQSNGIYRTAKVAFCIHNISYQGRFSFDDFAQLNLPDRFKSSFDFIDGYDKPVEGRKINWMKAGILQADKVLTVSPYYAEELISGEARGCELDNIMRLTGITGIVNGMDVSEWDPTKDKFLAVNYDITTALEAKALNKEALQAEVGLPVDRKVPLVAFIGRLEEQKGPDVMIAAIPEILKEEDVQIILLGTGKKKFEKLLKSMEEKFPGKVRAVVRFNAPLAHQMMAGADLLAVTSRFEPCGLIQLQGMRYGTPCVCASTGGLVDTIVEGKTGFHMGRLSVDCNVVEPADVKKVATTLKRAVKVVGTPAYQEMVKNCVVQDLSWKGPAKNWEDVLLELGVEGSEPGIVGEEIAPLAMENVAAP
notes: as for B1
B3: HvGBSSIa (Hordeum vulgare; I559V) (protein)
chain: SATGSGMNLVFVGAEMAPWSKTGGLGDVLGGLPPAMAANGHRVMVVSPRYDQYKDAWDTSVISEIKVADEYERVRFFHCYKRGVDRVFIDHPWFLEKVRGKTKEKIYGPDAGTDYEDNQQRFSLLCQAALEAPRILNLNNNPYFSGPYGEDVVFVCNDWHTGLLACYLKSNYQSNGIYRTAKVAFCIHNISYQGRFSFDDFAQLNLPDRFKSSFDFIDGYDKPVEGRKINWMKAGILQADKVLTVSPYYAEELISGEARGCELDNIMRLTGITGIVNGMDVSEWDPTKDKFLAVNYDITTALEAKALNKEALQAEVGLPVDRKVPLVAFIGRLEEQKGPDVMIAAIPEILKEEDVQIILLGTGKKKFEKLLKSMEEKFPGKVRAVVRFNAPLAHQMMAGADLLAVTSRFEPCGLIQLQGMRYGTPCVCASTGGLVDTIVEGKTGFHMGRLSVDCNVVEPADVKKVATTLKRAVKVVGTPAYQEMVKNCMVQDLSWKGPAKNWEDVLLELGVEGSEPGIVGEEIAPLAMENVAAP
notes: as for B1
B4: HvGBSSIa (Hordeum vulgare) (protein)
chain: SATGSGMNLVFVGAEMAPWSKTGGLGDVLGGLPPAMAANGHRVMVVSPRYDQYKDAWDTSVISEIKVADEYERVRFFHCYKRGVDRVFIDHPWFLEKVRGKTKEKIYGPDAGTDYEDNQQRFSLLCQAALEAPRILNLNNNPYFSGPYGEDVVFVCNDWHTGLLACYLKSNYQSNGIYRTAKVAFCIHNISYQGRFSFDDFAQLNLPDRFKSSFDFIDGYDKPVEGRKINWMKAGILQADKVLTVSPYYAEELISGEARGCELDNIMRLTGITGIVNGMDVSEWDPTKDKFLAVNYDITTALEAKALNKEALQAEVGLPVDRKVPLVAFIGRLEEQKGPDVMIAAIPEILKEEDVQIILLGTGKKKFEKLLKSMEEKFPGKVRAVVRFNAPLAHQMMAGADLLAVTSRFEPCGLIQLQGMRYGTPCVCASTGGLVDTIVEGKTGFHMGRLSVDCNVVEPADVKKVATTLKRAVKVVGTPAYQEMVKNCMIQDLSWKGPAKNWEDVLLELGVEGSEPGIVGEEIAPLAMENVAAP
notes: as for B1
B5: HvGBSSIa (Hordeum vulgare; M558V) (protein)
chain: SATGSGMNLVFVGAEMAPWSKTGGLGDVLGGLPPAMAANGHRVMVVSPRYDQYKDAWDTSVISEIKVADEYERVRFFHCYKRGVDRVFIDHPWFLEKVRGKTKEKIYGPDAGTDYEDNQQRFSLLCQAALEAPRILNLNNNPYFSGPYGEDVVFVCNDWHTGLLACYLKSNYQSNGIYRTAKVAFCIHNISYQGRFSFDDFAQLNLPDRFKSSFDFIDGYDKPVEGRKINWMKAGILQADKVLTVSPYYAEELISGEARGCELDNIMRLTGITGIVNGMDVSEWDPTKDKFLAVNYDITTALEAKALNKEALQAEVGLPVDRKVPLVAFIGRLEEQKGPDVMIAAIPEILKEEDVQIILLGTGKKKFEKLLKSMEEKFPGKVRAVVRFNAPLAHQMMAGADLLAVTSRFEPCGLIQLQGMRYGTPCVCASTGGLVDTIVEGKTGFHMGRLSVDCNVVEPADVKKVATTLKRAVKVVGTPAYQEMVKNCVIQDLSWKGPAKNWEDVLLELGVEGSEPGIVGEEIAPLAMENVAAP
notes: as for B1
B6: HvGBSSIa (Hordeum vulgare; D287V) (protein)
chain: SATGSGMNLVFVGAEMAPWSKTGGLGDVLGGLPPAMAANGHRVMVVSPRYDQYKDAWDTSVISEIKVADEYERVRFFHCYKRGVDRVFIDHPWFLEKVRGKTKEKIYGPDAGTDYEDNQQRFSLLCQAALEAPRILNLNNNPYFSGPYGEDVVFVCNDWHTGLLACYLKSNYQSNGIYRTAKVAFCIHNISYQGRFSFDDFAQLNLPDRFKSSFDFIVGYDKPVEGRKINWMKAGILQADKVLTVSPYYAEELISGEARGCELDNIMRLTGITGIVNGMDVSEWDPTKDKFLAVNYDITTALEAKALNKEALQAEVGLPVDRKVPLVAFIGRLEEQKGPDVMIAAIPEILKEEDVQIILLGTGKKKFEKLLKSMEEKFPGKVRAVVRFNAPLAHQMMAGADLLAVTSRFEPCGLIQLQGMRYGTPCVCASTGGLVDTIVEGKTGFHMGRLSVDCNVVEPADVKKVATTLKRAVKVVGTPAYQEMVKNCMIQDLSWKGPAKNWEDVLLELGVEGSEPGIVGEEIAPLAMENVAAP
notes: as for B1

Substrate in the data set: Nc1ncnc2c1ncn2[C@@H]1O[C@H](COP(=O)(O)OP(=O)(O)O[C@H]2O[C@H](CO)[C@@H](O)[C@H](O)[C@H]2O)[C@@H](O)[C@H]1O
The data set can be described thus: purified protein. Type of data set: biochemical, Hordeum vulgare. The following applies: rabbit liver glycogen 1 mg/ml as acceptor, 50 mM Bicine pH 8.5, 25 mM potassium acetate, 2 mM MgCl2, 10 mM DTT, 37 °C.
The Km is the concentration of substrate that gives half-maximal velocity. As usually defined, the kcat is the maximal rate divided by the concentration of active sites. Regarding B1, the Km was determined as 51 ± 10 µM and the kcat was determined as 0.00933 ± 0.0005 s⁻¹.
For B2, in that order: 56 ± 8 µM and 0.0157 ± 0.00067 s⁻¹.
For B3 the same measures were 114 ± 15 µM and 0.112 ± 0.005 s⁻¹.
As for B4, the Km is on record as 160 ± 15 µM and the kcat is 0.0967 ± 0.0033 s⁻¹.
On to B5, for which the Km was 71 ± 7 µM and the kcat is 0.353 ± 0.01 s⁻¹.
For the protein B6, the Km is recorded as 127 ± 9 µM and the kcat was 0.046 ± 0.001 s⁻¹.
